Laboratory results taken from article PMC7801659, “Shared and divergent phase separation and aggregation properties of brain-expressed ubiquilins” (Scientific Reports, 2021).

B1: UBQLN1^438–589 (domain or fragment, human)
chain: WLPTFLQQMQNPDTLSAMSNPRAMQALLQIQQGLQTLATEAPGLIPGFTPGLGALGSTGGSSGTNGSNATPSENTSPTAGTTEPGHQQFIQQMLQALAGVNPQLQNPEVRFQQQLEQLSAMGFLNREANLQALIATGGDINAAIERLLGSQPS
notes: one tryptophan added at the N-terminus with the 6xHis tag (His6-W-); also called C-terminal UBQLN1 construct; source: E. coli Rosetta (DE3), purified (Ni-NTA, dialysis); not shown: His6, N-terminal, kept
B2: UBQLN2^430–624 (domain or fragment, human)
chain: WLPAFLQQMQNPDTLSAMSNPRAMQALMQIQQGLQTLATEAPGLIPSFTPGVGVGVLGTAIGPVGPVTPIGPIGPIVPFTPIGPIGPIGPTGPAAPPGSTGSGGPTGPTVSSAAPSETTSPTSESGPNQQFIQQMVQALAGANAPQLPNPEVRFQQQLEQLNAMGFLNREANLQALIATGGDINAAIERLLGSQPS
notes: one tryptophan added at the N-terminus with the 6xHis tag (His6-W-); ubiquilin-2 (UBQLN2, PLIC-2), residues 430-624, from the fourth STI1 motif to the end of the protein, includes the PXX domain and the UBA domain; Plasmid pET3a-His6-W-UBQLN2^430–624 bought from Genscript; also called His6-W-UBQLN2^430–624; C-terminal UBQLN2 construct; source: E. coli Rosetta (DE3), purified (Ni-NTA, flow-through …)
B3: UBQLN4^444–601 (domain or fragment, human)
chain: WLPVFLQQMQNPESLSILTNPRAMQALLQIQQGLQTLQTEAPGLVPSLGSFGISRTPAPSAGSNAGSTPEAPTSSPATPATSSPTGASSAQQQLMQQMIQLLAGSGNSQVQTPEVRFQQQLEQLNSMGFINREANLQALIATGGDINAAIERLLGSQLS
notes: one tryptophan added at the N-terminus with the 6xHis tag (His6-W-); also called C-terminal UBQLN4 construct; source: E. coli Rosetta (DE3), purified (Ni-NTA, dialysis); not shown: His6, N-terminal, kept
B4: UBA^581–624 (domain or fragment, human)
chain: WRFQQQLEQLNAMGFLNREANLQALIATGGDINAAIERLLGSQPS
notes: one tryptophan added at the N-terminus with the 6xHis tag (His6-W-); ubiquilin-2 (UBQLN2), UBA domain, residues 581-624; The methods on expression and purification name only the three longer constructs; also called His6-W-UBQLN2^581–624(UBA); isolated UBA domain from UBQLN2; source: recombinant, plasmid for bacterial expression (pET3a)

Target: the molecule itself
Experiment: ThioflavinT aggregation assay + transmission electron microscopy; 10 µM protein alone, 10 µM ThT, 0.1 M NaCl, 1 mM sodium azide, 20 mM Na phosphate pH 7.5, 37 °C, shaking at 200 rpm with Teflon beads; samples taken for negative-stain TEM at the end of the ThT assay; self-association into aggregates or fibrils

Row | Protein | binding result
1 | B1 | binds
2 | B2 | binds
3 | B3 | binds
4 | B4 | binds
